Molecular target: Adnectin C-PAS#1(200)
Assay: SPR; Biacore X100, 25 °C, HBS-EP buffer pH 7.4, CM5 chip; His-tagged Adnectins captured on amine-coupled anti-His antibody (about 300 RU); rhVEGFR2 injected at 50-3.125 ug/ml; multi cycle kinetics, contact 180 s, dissociation 500 s

## rhVEGFR2 (Genescript) (from UniProt P35968 20-764) (receptor)
  Kd: 0.159 nM
  koff: 2.48e-05 s⁻¹
  kon: 156000 M⁻¹ s⁻¹
